Results as given in paper PMC4161314.
Several values for one entry are separate records, joined by “and”; a condition that tells them apart may be missing. Equal values may be shown once.

Molecular target: 20S proteolytic core of the proteasome, mouse liver (mouse (endogenous in mouse liver)) (UniProt O55234)
Assay: negative-stain electron microscopy; proteasomes co-purified with polyubiquitin conjugates on GstUBD beads, released at 37°C for 7 minutes, stained with 2% uranyl acetate; visual classification of side views, WT and PiZ samples

Chain of UniProt O55234 (O55234 whole entry, looked up): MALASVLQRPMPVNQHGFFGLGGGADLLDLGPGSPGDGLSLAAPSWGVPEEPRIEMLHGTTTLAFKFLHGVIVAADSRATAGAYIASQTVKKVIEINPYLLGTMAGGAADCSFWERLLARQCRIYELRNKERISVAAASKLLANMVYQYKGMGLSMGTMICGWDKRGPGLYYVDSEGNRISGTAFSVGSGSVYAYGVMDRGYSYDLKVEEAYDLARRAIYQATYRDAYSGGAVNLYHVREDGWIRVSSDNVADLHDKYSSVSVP

Substance: 19S activator of the proteasome, mouse liver (from UniProt P62334 1-389) (complex)
- percent of proteasomes with at least one 19S cap: 93% and 90%
